Reference: PMC11032491, “A conserved strategy to attack collagen: The activator domain in bacterial collagenases unwinds triple-helical collagen” (Proceedings of the National Academy of Sciences of the …, 2024)

How the values were obtained:
[1] = molecular target: type I gelatin (heat-denatured acid-soluble type I atelocollagen from bovine hides) (bovine) (UniProt P02453); assay: ELISA; indirect ELISA; gelatin coated on the plate (5 µg/ml); His-tagged collagenase variant in PBST with 1% BSA, serially diluted 1:3, 140 min at 37 °C; detected with anti-His-HRP; Hill fit; apparent Kd
Chain of type I gelatin (heat-denatured acid-soluble type I atelocollagen from bovine hides) (bovine) (P02453 23-1217, chain 1 of 2): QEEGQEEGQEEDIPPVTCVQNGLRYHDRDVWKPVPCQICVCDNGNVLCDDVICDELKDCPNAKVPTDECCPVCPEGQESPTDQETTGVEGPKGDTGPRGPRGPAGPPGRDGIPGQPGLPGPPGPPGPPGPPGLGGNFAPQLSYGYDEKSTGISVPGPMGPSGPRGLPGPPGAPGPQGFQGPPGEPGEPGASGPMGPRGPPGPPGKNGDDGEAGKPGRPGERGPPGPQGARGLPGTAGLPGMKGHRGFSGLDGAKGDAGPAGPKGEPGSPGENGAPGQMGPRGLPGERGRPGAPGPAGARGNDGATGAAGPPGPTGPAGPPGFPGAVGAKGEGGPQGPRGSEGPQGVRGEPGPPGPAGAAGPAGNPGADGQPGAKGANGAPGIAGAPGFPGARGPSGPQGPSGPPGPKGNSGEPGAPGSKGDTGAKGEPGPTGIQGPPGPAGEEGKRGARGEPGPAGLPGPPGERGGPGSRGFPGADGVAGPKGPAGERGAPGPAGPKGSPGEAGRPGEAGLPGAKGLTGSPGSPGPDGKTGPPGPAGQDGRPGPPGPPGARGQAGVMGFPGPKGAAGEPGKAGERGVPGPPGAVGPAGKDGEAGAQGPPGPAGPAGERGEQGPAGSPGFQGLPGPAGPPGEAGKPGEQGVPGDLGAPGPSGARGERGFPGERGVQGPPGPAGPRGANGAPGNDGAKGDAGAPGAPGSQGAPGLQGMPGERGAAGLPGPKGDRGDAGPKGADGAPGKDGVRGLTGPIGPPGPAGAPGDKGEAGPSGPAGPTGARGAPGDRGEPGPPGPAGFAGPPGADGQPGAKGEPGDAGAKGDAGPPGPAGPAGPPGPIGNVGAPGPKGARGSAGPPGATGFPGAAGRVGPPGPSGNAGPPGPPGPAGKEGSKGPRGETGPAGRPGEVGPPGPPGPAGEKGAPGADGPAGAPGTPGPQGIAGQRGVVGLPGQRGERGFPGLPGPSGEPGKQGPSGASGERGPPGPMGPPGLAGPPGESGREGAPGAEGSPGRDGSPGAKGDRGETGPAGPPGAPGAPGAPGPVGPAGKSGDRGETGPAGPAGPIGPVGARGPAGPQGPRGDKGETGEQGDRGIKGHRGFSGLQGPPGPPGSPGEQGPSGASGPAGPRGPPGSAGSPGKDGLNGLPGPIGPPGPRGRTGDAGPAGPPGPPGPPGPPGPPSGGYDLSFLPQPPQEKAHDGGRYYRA
Chain of type I gelatin (heat-denatured acid-soluble type I atelocollagen from bovine hides) (bovine) (P02465 80-1117, chain 2 of 2, further chain): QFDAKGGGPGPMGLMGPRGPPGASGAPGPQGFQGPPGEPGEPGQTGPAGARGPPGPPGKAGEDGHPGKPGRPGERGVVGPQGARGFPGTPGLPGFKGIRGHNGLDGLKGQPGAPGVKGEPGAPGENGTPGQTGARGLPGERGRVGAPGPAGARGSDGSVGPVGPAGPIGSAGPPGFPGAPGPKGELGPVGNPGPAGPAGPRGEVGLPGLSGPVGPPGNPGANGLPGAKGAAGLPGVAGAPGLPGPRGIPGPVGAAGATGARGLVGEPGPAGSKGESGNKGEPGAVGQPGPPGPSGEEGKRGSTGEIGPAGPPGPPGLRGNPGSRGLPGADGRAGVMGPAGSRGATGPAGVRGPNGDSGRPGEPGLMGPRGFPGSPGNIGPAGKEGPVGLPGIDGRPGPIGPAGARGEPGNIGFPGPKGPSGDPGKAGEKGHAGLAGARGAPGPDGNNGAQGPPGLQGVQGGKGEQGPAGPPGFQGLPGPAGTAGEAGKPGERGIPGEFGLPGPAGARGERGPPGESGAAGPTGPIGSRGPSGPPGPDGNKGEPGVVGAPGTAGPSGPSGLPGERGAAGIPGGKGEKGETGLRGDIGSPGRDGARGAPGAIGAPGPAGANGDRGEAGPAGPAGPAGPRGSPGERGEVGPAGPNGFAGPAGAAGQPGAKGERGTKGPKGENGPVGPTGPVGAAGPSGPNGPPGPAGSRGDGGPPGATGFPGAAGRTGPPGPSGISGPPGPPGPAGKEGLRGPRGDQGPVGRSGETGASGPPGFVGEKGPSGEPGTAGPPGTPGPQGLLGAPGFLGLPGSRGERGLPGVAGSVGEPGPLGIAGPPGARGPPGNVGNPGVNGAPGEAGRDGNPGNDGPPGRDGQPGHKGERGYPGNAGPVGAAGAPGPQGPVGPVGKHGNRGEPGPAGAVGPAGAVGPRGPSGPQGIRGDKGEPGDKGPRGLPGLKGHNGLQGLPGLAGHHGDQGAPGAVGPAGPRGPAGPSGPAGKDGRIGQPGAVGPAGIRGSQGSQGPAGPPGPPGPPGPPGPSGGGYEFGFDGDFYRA

[2] = molecular target: soluble type I collagen (acid-soluble type I atelocollagen from bovine hides) (bovine) (UniProt P02453); assay: ELISA; indirect ELISA; soluble type I collagen coated on the plate (5 µg/ml); His-tagged collagenase variant in PBST with 1% BSA, serially diluted 1:3, 140 min at room temperature (25 °C); detected with anti-His-HRP; Hill fit; apparent Kd
Chain of soluble type I collagen (acid-soluble type I atelocollagen from bovine hides) (bovine) (P02453 162-1217, chain 1 of 2): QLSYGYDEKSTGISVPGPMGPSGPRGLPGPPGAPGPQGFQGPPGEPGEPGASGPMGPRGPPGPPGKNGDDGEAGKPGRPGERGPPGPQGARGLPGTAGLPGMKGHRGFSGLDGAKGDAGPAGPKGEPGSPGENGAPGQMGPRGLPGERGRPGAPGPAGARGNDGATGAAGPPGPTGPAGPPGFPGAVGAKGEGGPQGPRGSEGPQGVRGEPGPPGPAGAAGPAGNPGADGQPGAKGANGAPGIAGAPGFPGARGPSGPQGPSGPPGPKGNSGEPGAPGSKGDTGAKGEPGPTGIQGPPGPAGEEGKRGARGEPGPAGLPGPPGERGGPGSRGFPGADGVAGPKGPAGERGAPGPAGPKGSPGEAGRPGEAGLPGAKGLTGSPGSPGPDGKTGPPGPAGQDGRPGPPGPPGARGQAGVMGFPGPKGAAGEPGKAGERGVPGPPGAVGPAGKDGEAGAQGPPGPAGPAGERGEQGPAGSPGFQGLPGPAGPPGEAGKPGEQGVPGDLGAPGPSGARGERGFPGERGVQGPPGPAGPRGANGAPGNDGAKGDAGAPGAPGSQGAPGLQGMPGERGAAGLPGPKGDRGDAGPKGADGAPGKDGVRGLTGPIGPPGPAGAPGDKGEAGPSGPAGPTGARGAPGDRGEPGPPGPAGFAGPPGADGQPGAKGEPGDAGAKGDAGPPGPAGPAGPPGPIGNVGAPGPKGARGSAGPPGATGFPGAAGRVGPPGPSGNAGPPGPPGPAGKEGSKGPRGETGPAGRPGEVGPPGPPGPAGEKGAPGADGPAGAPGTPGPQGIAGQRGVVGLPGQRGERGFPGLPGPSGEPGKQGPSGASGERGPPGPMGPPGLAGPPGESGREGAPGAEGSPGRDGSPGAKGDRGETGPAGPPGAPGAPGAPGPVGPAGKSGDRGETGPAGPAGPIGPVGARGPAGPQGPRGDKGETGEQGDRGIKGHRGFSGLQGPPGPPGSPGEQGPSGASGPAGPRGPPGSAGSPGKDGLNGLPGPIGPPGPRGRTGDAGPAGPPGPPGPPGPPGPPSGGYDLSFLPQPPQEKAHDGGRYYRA
Chain of soluble type I collagen (acid-soluble type I atelocollagen from bovine hides) (bovine) (P02465 80-1117, chain 2 of 2, further chain): as the sequence (P02465 80-1117, chain 2 of 2, further chain) above

| Substance | Kd [1] | Kd [2] |
| --- | --- | --- |
| ColQ1-CU G472V E166A (from UniProt B9J3S4 94-965) (domain or fragment) | 5000 nM |  |
| ColQ1-CU G472V F123A (from UniProt B9J3S4 94-965) (domain or fragment) | 1600 nM |  |
| ColQ1-CU G472V F176A (from UniProt B9J3S4 94-965) (domain or fragment) | 1200 nM | 80 nM |
| ColQ1-CU G472V N317A (control mutant) (from UniProt B9J3S4 94-965) (domain or fragment) | 2300 nM | 2800 nM |
| ColQ1-CU G472V R169A (from UniProt B9J3S4 94-965) (domain or fragment) | 2800 nM | 170 nM |
| ColQ1-CU G472V Y173A (from UniProt B9J3S4 94-965) (domain or fragment) | 24000 nM |  |
| ColQ1-CU G472V Y251A (control mutant) (from UniProt B9J3S4 94-965) (domain or fragment) | 2500 nM | 2800 nM |
| ColQ1-CU G472V Y270A (from UniProt B9J3S4 94-965) (domain or fragment) | 4200 nM | 190 nM |
| ColQ1-CU G472V Y321A (control mutant) (from UniProt B9J3S4 94-965) (domain or fragment) | 2500 nM | 4000 nM |
